Measurements published in patent publication US20250000992A1 (Eli Lilly, published 2025).

How the values were obtained:
[1] = target: T1, Cynomolgus TfR1 ECD, His tagged (cynomolgus, UniProt H9EXL1 89-760 (rhesus entry)); experiment: SPR, Biacore T200, 25 C, His-tagged ECD amine coupled to CM3 chip, construct injected, 1:1 fit
T1 construct: extracellular domain; Purchased from SYNGENE; also called cyno TfR1; cyno Tfr1; not shown: His tag
Protocol: (§1) To determine the binding kinetics and affinity of H09-PGRN and BACDE to human TfR1 (hTfR1), human TfR2 (hTfR2) and cynomolgus TfR1, binding affinities and kinetics for antibody to antigen were determined using a BIACORE® T200 instrument. The binding kinetics and affinity of antibodies H09-PGRN and BACDE to human TfR1 ECD were determined using surface plasmon resonance biosensor such as BIAcore® T200 (GE Healthcare, Piscataway, N.J.). Briefly described, BIAcore® T200 instrument is used to measure the binding kinetics for Sandwich Ex. 1 (H09-PGRN-C90.43) and Sandwich Ex. 2 (H09-PGRNΔpGF-C90.43 to hTfR1, hTfR2 and cyno Tfr1 via surface plasmon resonance (SPR) at 25° C. Samples are dissolved in 1×HBS-EP+running buffer (Teknova cat. #H802) and His tagged ECD of the hTfR1, hTfR2, and cyno TfR was amine coupled to the Cytiva CM3 Series S sensor chip.
(§2) Binding is evaluated using multiple analytical cycles. Each cycle is performed at 25° C. at a flow rate of 50 μl/min for ligand association and dissociation. Each kinetic cycle consists of the following steps: injection of the Sandwich Ex. 1 (H09-PGRN-C90.43) and Sandwich Ex. 2 (H09-PGRNΔpGF-C90.43) over all four flow cells (starting at 125 nM and using two-fold serial dilutions for each cycle) for 240 seconds and followed by 900 seconds for dissociation phase, and regeneration using 3 M MgCl2 […] over a 30 s contact time. Association (i e., kₒₙ) and dissociation rates (i.e., Koff) for each are evaluated using standard double referencing and fit to “1:1 (Langmuir) binding” model in the BiaEvaluation software in batch mode. The affinity (KD) is calculated from the binding kinetics according to the relationship K)=Koff/Kon.

[2] = target: T2, Human TfR1 ECD, hexa-histidine tagged (human, UniProt P02786 89-760); experiment: as above
T2 construct: extracellular domain; Made in 293 cells, purified by IMAC and SEC; amine coupled to a CM3 chip; also called hTfR1; not shown: hexa-histidine tag
Protocol: as §1, §2

[3] = target: T3, Sortilin receptor on HEK293 cells (UniProt Q99523 78-831, limits assumed); experiment: cell-based or functional assay
[4] = target: T3, Sortilin receptor on HEK293 cells; experiment: told with the HEK293 cathepsin D assay (FIG. 5); no direct binding assay described

Row | Kd [1] | koff [1] | kon [1] | Kd [2] | koff [2] | kon [2] | Mature Cathepsin D levels in cell lysate (ELISA), HEK293 cells, 100 ng/mL, 24 hours [3] | binding result [4] | Binder
1 | 9.7 nM | 0.0047 s⁻¹ | 485000 M⁻¹ s⁻¹ | 7.29 nM | 0.00434 s⁻¹ | 595000 M⁻¹ s⁻¹ | – | – | Sandwich Ex. 1 (H09-PGRN-C90.43) (Fab, also called H09 Fab-PGRN-C90.43) heavy: EVQLVESGGGLVKPGGSLRLSCVASGFTFSSYSMNWVRQAPGKGLEWVSSISSSSSYIYYADSVKGRFTISRDNAKNSLYLQMNSLRAEDTAVYYCARRHGYSNSDAFDNWGQGTLVTVSSASTKGPSVFPLAPSSKSTSGGTAALGCLVKDYFPEPVTVSWNSGALTSGVHTFPAVLQSSGLYSLSSVVTVPSSSLGTQTYICNVNHKPSNTKVDKKVEPKSCDKTHTGGGGQGGGGQGGGGQTRCPDGQFCPVACCLDPGGASYSCCRPLLDKWPTTLSRHLGGPCQVDAHCSAGHSCIFTVSGTSSCCPFPEAVACGDGHHCCPRGFHCSADGRSCFQRSGNNSVGAIQCPDSQFECPDFSTCCVMVDGSWGCCPMPQASCCEDRVHCCPHGAFCDLVHTRCITPTGTHPLAKKLPAQRTNRAVALSSSVMCPDARSRCPDGSTCCELPSGKYGCCPMPNATCCSDHLHCCPQDTVCDLIQSKCLSKENATTDLLTKLPAHTVGDVKCDMEVSCPDGYTCCRLQSGAWGCCPFTQAVCCEDHIHCCPAGFTCDTQKGTCEQGPHQVPWMEKAPAHLSLPDPQALKRDVPCDNVSSCPSSDTCCQLTSGEWGCCPIPEAVCCSDHQHCCPQGYTCVAEGQCQRGSEIVAGLEKMPARRASLSHPRDIGCDQHTSCPVGQTCCPSLGGSWACCQLPHAVCCEDRQHCCPAGYTCNVKARSCEKEVVSAQPATFLARSPHVGVKDVECGEGHFCHDNQTCCRDNRQGWACCPYRQGVCCADRRHCCPAGFRCAARGTKCLRREAPRWDAPLRDPALRQLLGGGGQGGGGQGGGGQEVQLLESGGGLVQPGGSLRLSCAASGRYIDETAVAWFRQAPGKGREFVAGIGGGVDITYYADSVKGRFTISRDNSKNTLYLQMNSLRPEDTAVYYCGARPGRPLITSKVADLYPYWGQGTLVTVSSPP light: DIQMTQSPSAMSASVGDRVTITCRASQGISHYLVWFQQKPGKVPKRLIYAASSLQSGVPSRFSGSGSGTEFTLTISSLQPEDFATYYCLQHNSYPWTFGQGTKVEIKRTVAAPSVFIFPPSDEQLKSGTASVVCLLNNFYPREAKVQWKVDNALQSGNSQESVTEQDSKDSTYSLSSTLTLSKADYEKHKVYACEVTHQGLSSPVTKSFNRGEC
2 | 13 nM | 0.00318 s⁻¹ | 244000 M⁻¹ s⁻¹ | 7.12 nM | 0.0052 s⁻¹ | 730000 M⁻¹ s⁻¹ | – | – | Sandwich Ex. 2 (H09-PGRNΔpGF-C90.43) (Fab, also called H09 Fab-PGRNΔpGF-C90.43; H09-dPGF-C90.43) heavy: EVQLVESGGGLVKPGGSLRLSCVASGFTFSSYSMNWVRQAPGKGLEWVSSISSSSSYIYYADSVKGRFTISRDNAKNSLYLQMNSLRAEDTAVYYCARRHGYSNSDAFDNWGQGTLVTVSSASTKGPSVFPLAPSSKSTSGGTAALGCLVKDYFPEPVTVSWNSGALTSGVHTFPAVLQSSGLYSLSSVVTVPSSSLGTQTYICNVNHKPSNTKVDKKVEPKSCDKTGGGGQGGGGQGGGGQTPTGTHPLAKKLPAQRTNRAVALSSSVMCPDARSRCPDGSTCCELPSGKYGCCPMPNATCCSDHLHCCPQDTVCDLIQSKCLSKENATTDLLTKLPAHTVGDVKCDMEVSCPDGYTCCRLQSGAWGCCPFTQAVCCEDHIHCCPAGFTCDTQKGTCEQGPHQVPWMEKAPAHLSLPDPQALKRDVPCDNVSSCPSSDTCCQLTSGEWGCCPIPEAVCCSDHQHCCPQGYTCVAEGQCQRGSEIVAGLEKMPARRASLSHPRDIGCDQHTSCPVGQTCCPSLGGSWACCQLPHAVCCEDRQHCCPAGYTCNVKARSCEKEVVSAQPATFLARSPHVGVKDVECGEGHFCHDNQTCCRDNRQGWACCPYRQGVCCADRRHCCPAGFRCAARGTKCLRREAPRWDAPLRDPALRQLLGGGGQGGGGQGGGGQEVQLLESGGGLVQPGGSLRLSCAASGRYIDETAVAWFRQAPGKGREFVAGIGGGVDITYYADSVKGRFTISRDNSKNTLYLQMNSLRPEDTAVYYCGARPGRPLITSKVADLYPYWGQGTLVTVSSPP light: DIQMTQSPSAMSASVGDRVTITCRASQGISHYLVWFQQKPGKVPKRLIYAASSLQSGVPSRFSGSGSGTEFTLTISSLQPEDFATYYCLQHNSYPWTFGQGTKVEIKRTVAAPSVFIFPPSDEQLKSGTASVVCLLNNFYPREAKVQWKVDNALQSGNSQESVTEQDSKDSTYSLSSTLTLSKADYEKHKVYACEVTHQGLSSPVTKSFNRGEC
3 | – | – | – | – | – | – | 100 | no binding | Sandwich Ex. 3 (8D3-PGRN-C90.43) (Fab, Fab fusion with the 8D3 Fab in place of H09) heavy: EVQLVESGGGLVQPGNSLTLSCVASGFTFSNYGMHWIRQAPKKGLEWIAMIYYDSSKMNYADTVKGRFTISRDNSKNTLYLEMNSLRSEDTAMYYCAVPTSHYVVDVWGQGVSVTVSSASTKGPCVFPLAPSSKSTSGGTAALGCLVKDYFPEPVTVSWNSGALTSGVHTFPAVLQSSGLYSLSSVVTVPSSSLGTQTYICNVNHKPSNTKVDKKVEPKSCDKTHTGGGGQGGGGQGGGGQTRCPDGQFCPVACCLDPGGASYSCCRPLLDKWPTTLSRHLGGPCQVDAHCSAGHSCIFTVSGTSSCCPFPEAVACGDGHHCCPRGFHCSADGRSCFQRSGNNSVGAIQCPDSQFECPDFSTCCVMVDGSWGCCPMPQASCCEDRVHCCPHGAFCDLVHTRCITPTGTHPLAKKLPAQRTNRAVALSSSVMCPDARSRCPDGSTCCELPSGKYGCCPMPNATCCSDHLHCCPQDTVCDLIQSKCLSKENATTDLLTKLPAHTVGDVKCDMEVSCPDGYTCCRLQSGAWGCCPFTQAVCCEDHIHCCPAGFTCDTQKGTCEQGPHQVPWMEKAPAHLSLPDPQALKRDVPCDNVSSCPSSDTCCQLTSGEWGCCPIPEAVCCSDHQHCCPQGYTCVAEGQCQRGSEIVAGLEKMPARRASLSHPRDIGCDQHTSCPVGQTCCPSLGGSWACCQLPHAVCCEDRQHCCPAGYTCNVKARSCEKEVVSAQPATFLARSPHVGVKDVECGEGHFCHDNQTCCRDNRQGWACCPYRQGVCCADRRHCCPAGFRCAARGTKCLRREAPRWDAPLRDPALRQLLGGGGQGGGGQGGGGQEVQLLESGGGLVQPGGSLRLSCAASGRYIDETAVAWFRQAPGKGREFVAGIGGGVDITYYADSVKGRFTISRDNSKNTLYLQMNSLRPEDTAVYYCGARPGRPLITSKVADLYPYWGQGTLVTVSSPP light: DIQMTQSPASLSASLEEIVTITCQASQDIGNWLAWYQQKPGKSPQLLIYGATSLADGVPSRFSGSRSGTQFSLKISRVQVEDIGIYYCLQAYNTPWTFGGGTKLELKRTVAAPSVFIFPPSDEQLKSGTASVVCLLNNFYPREAKVQWKVDNALQSGNSQESVTEQDSKDSTYSLSSTLTLSKADYEKHKVYACEVTHQGLSSPVTKSFNRGEC
